Reference: patent US20260265379A1 (IMCHECK THERAPEUTICS, published 2026)

B1: bsAb033 (bispecific antibody)
heavy (part 1 of 2): QVQLVQSGAEVKKPGASVKLSCKASGYIFTRYYMYWVKQRPGQGLEWIGEINPNNGGTKFNEKFKNRATLTVDKSISTAYMELSRLRSDDTAVYYCSREDDYDGTPFAMDYWGQGTLVTVSS
heavy (part 2 of 2): GGGGSGGGGSGGGGSGGGGSQVQLVQSGVEVKKPGASVKVSCKASGYTFTNYYMYWVRQAPGQGLEWMGGINPSNGGTNFNEKFKNRVTLTTDSSTTTAYMELKSLQFDDTAVYYCARRDYRFDMGFDYWGQGTTVTVSSGGGGSGGGGSGGGGSGGGGSEIVLTQSPATLSLSPGERATLSCRASKGVSTSGYSYLHWYQQKPGQAPRLLIYLASYLESGVPARFSGSGSGTDFTLTISSLEPEDFAVYYCQHSRDLPLTFGGGTKVEIK
heavy: QVQLVQSGAEVKKPGASVKLSCKASGYIFTRYYMYWVKQRPGQGLEWIGEINPNNGGTKFNEKFKNRATLTVDKSISTAYMELSRLRSDDTAVYYCSREDDYDGTPFAMDYWGQGTLVTVSS
light: not shown
notes: IgG anti-BTN3A, one scFv anti-PD-1; not shown: IgG1 CH1-hinge-CH2-CH3
B2: bsAb052 (bispecific antibody)
heavy (part 1 of 2): QVQLVQSGAEVKKPGASVKLSCKASGYIFTRYYMYWVKQRPGQGLEWIGEINPNNGGTKFNEKFKNRATLTVDKSISTAYMELSRLRSDDTAVYYCSREDDYDGTPFAMDYWGQGTLVTVSS
heavy (part 2 of 2): GGGGSGGGGSGGGGSGGGGSQVQLVQSGVEVKKPGASVKVSCKASGYTFTNYYMYWVRQAPGQGLEWMGGINPSNGGTNFNEKFKNRVTLTTDSSTTTAYMELKSLQFDDTAVYYCARRDYRFDMGFDYWGQGTTVTVSSGGGGSGGGGSGGGGSGGGGSEIVLTQSPATLSLSPGERATLSCRASKGVSTSGYSYLHWYQQKPGQAPRLLIYLASYLESGVPARFSGSGSGTDFTLTISSLEPEDFAVYYCQHSRDLPLTFGGGTKVEIK
heavy: GGGGSGGGGSGGGGSGGGGSQVQLVQSGVEVKKPGASVKVSCKASGYTFTNYYMYWVRQAPGQGLEWMGGINPSNGGTNFNEKFKNRVTLTTDSSTTTAYMELKSLQFDDTAVYYCARRDYRFDMGFDYWGQGTTVTVSSGGGGSGGGGSGGGGSGGGGSEIVLTQSPATLSLSPGERATLSCRASKGVSTSGYSYLHWYQQKPGQAPRLLIYLASYLESGVPARFSGSGSGTDFTLTISSLEPEDFAVYYCQHSRDLPLTFGGGTKVEIK
light: not shown
notes: one Fab arm anti-BTN3A, two scFv anti-PD-1; not shown: IgG1 CH1-hinge-CH2-CH3; CH2-CH3 (Fc)
B3: bsAb049 (bispecific antibody)
heavy 1: QVQLVQSGVEVKKPGASVKVSCKASGYTFTNYYMYWVRQAPGQGLEWMGGINPSNGGTNFNEKFKNRVTLTTDSSTTTAYMELKSLQFDDTAVYYCARRDYRFDMGFDYWGQGTTVTVSSGGGGSGGGGSGGGGSGGGGSEIVLTQSPATLSLSPGERATLSCRASKGVSTSGYSYLHWYQQKPGQAPRLLIYLASYLESGVPARFSGSGSGTDFTLTISSLEPEDFAVYYCQHSRDLPLTFGGGTKVEIKGGGGSGGGGSGGGGSGGGGSQVQLVQSGAEVKKPGASVKLSCKASGYIFTRYYMYWVKQRPGQGLEWIGEINPNNGGTKFNEKFKNRATLTVDKSISTAYMELSRLRSDDTAVYYCSREDDYDGTPFAMDYWGQGTLVTVSS
heavy 2: QVQLVQSGAEVKKPGASVKLSCKASGYIFTRYYMYWVKQRPGQGLEWIGEINPNNGGTKFNEKFKNRATLTVDKSISTAYMELSRLRSDDTAVYYCSREDDYDGTPFAMDYWGQGTLVTVSS
light: not shown
notes: as for B1
B4: bsAb047 (bispecific antibody)
heavy 1: EIVLTQSPATLSLSPGERATLSCRASKGVSTSGYSYLHWYQQKPGQAPRLLIYLASYLESGVPARFSGSGSGTDFTLTISSLEPEDFAVYYCQHSRDLPLTFGGGTKVEIKGGGGSGGGGSGGGGSGGGGSQVQLVQSGVEVKKPGASVKVSCKASGYTFTNYYMYWVRQAPGQGLEWMGGINPSNGGTNFNEKFKNRVTLTTDSSTTTAYMELKSLQFDDTAVYYCARRDYRFDMGFDYWGQGTTVTVSSGGGGSGGGGSGGGGSGGGGSQVQLVQSGAEVKKPGASVKLSCKASGYIFTRYYMYWVKQRPGQGLEWIGEINPNNGGTKFNEKFKNRATLTVDKSISTAYMELSRLRSDDTAVYYCSREDDYDGTPFAMDYWGQGTLVTVSS
heavy 2: QVQLVQSGAEVKKPGASVKLSCKASGYIFTRYYMYWVKQRPGQGLEWIGEINPNNGGTKFNEKFKNRATLTVDKSISTAYMELSRLRSDDTAVYYCSREDDYDGTPFAMDYWGQGTLVTVSS
light: not shown
notes: as for B1
B5: bsAb038 (bispecific antibody)
heavy (part 1 of 2): QVQLVQSGAEVKKPGASVKLSCKASGYIFTRYYMYWVKQRPGQGLEWIGEINPNNGGTKFNEKFKNRATLTVDKSISTAYMELSRLRSDDTAVYYCSREDDYDGTPFAMDYWGQGTLVTVSS
heavy (part 2 of 2): GGGGSGGGGSGGGGSGGGGSEIVLTQSPATLSLSPGERATLSCRASKGVSTSGYSYLHWYQQKPGQAPRLLIYLASYLESGVPARFSGSGSGTDFTLTISSLEPEDFAVYYCQHSRDLPLTFGGGTKVEIKGGGGSGGGGSGGGGSGGGGSQVQLVQSGVEVKKPGASVKVSCKASGYTFTNYYMYWVRQAPGQGLEWMGGINPSNGGTNFNEKFKNRVTLTTDSSTTTAYMELKSLQFDDTAVYYCARRDYRFDMGFDYWGQGTTVTVSS
heavy: QVQLVQSGAEVKKPGASVKLSCKASGYIFTRYYMYWVKQRPGQGLEWIGEINPNNGGTKFNEKFKNRATLTVDKSISTAYMELSRLRSDDTAVYYCSREDDYDGTPFAMDYWGQGTLVTVSS
light: not shown
notes: as for B1
B6: bsAb022 (bispecific antibody)
heavy: QVQLVQSGVEVKKPGASVKVSCKASGYTFTNYYMYWVRQAPGQGLEWMGGINPSNGGTNFNEKFKNRVTLTTDSSTTTAYMELKSLQFDDTAVYYCARRDYRFDMGFDYWGQGTTVTVSSGGGGSGGGGSGGGGSGGGGSEIVLTQSPATLSLSPGERATLSCRASKGVSTSGYSYLHWYQQKPGQAPRLLIYLASYLESGVPARFSGSGSGTDFTLTISSLEPEDFAVYYCQHSRDLPLTFGGGTKVEIKGGGGSGGGGSGGGGSGGGGSQVQLVQSGAEVKKPGASVKLSCKASGYIFTRYYMYWVKQRPGQGLEWIGEINPNNGGTKFNEKFKNRATLTVDKSISTAYMELSRLRSDDTAVYYCSREDDYDGTPFAMDYWGQGTLVTVSSASTKGPSVFPLAPSSKSTSGGTAALGCLVKDYFPEPVTVSWNSGALTSGVHTFPAVLQSSGLYSLSSVVTVPSSSLGTQTYICNVNHKPSNTKVDKRVEPKSCDKTHTCPPCPAPEFEGGPSVFLFPPKPKDTLMISRTPEVTCVVVDVSHEDPEVKFNWYVDGVEVHNAKTKPREEQYNSTYRVVSVLTVLHQDWLNGKEYKCKVSNKALPASIEKTISKAKGQPREPQVYTLPPSREEMTKNQVSLTCLVKGFYPSDIAVEWESNGQPENNYKTTPPVLDSDGSFFLYSKLTVDKSRWQQGNVFSCSVMHEALHNHYTQKSLSLSPG
light: not shown
notes: IgG anti-BTN3A, scFv anti-PD-1
B7: bsAb025 (bispecific antibody)
heavy: QVQLVQSGVEVKKPGASVKVSCKASGYTFTNYYMYWVRQAPGQGLEWMGGINPSNGGTNFNEKFKNRVTLTTDSSTTTAYMELKSLQFDDTAVYYCARRDYRFDMGFDYWGQGTTVTVSSASTKGPSVFPLAPSSKSTSGGTAALGCLVKDYFPEPVTVSWNSGALTSGVHTFPAVLQSSGLYSLSSVVTVPSSSLGTQTYICNVNHKPSNTKVDKKVEPKSCDKTHTGGSSGSGSGSTGTSSSGTGTSAGTTGTSASTSGSGSGGGGGSGGGGSAGGEIVLTQSPATLSLSPGERATLSCRASKGVSTSGYSYLHWYQQKPGQAPRLLIYLASYLESGVPARFSGSGSGTDFTLTISSLEPEDFAVYYCQHSRDLPLTFGGGTKVEIKRTVAAPSVFIFPPSDEQLKSGTASVVCLLNNFYPREAKVQWKVDNALQSGNSQESVTEQDSKDSTYSLSSTLTLSKADYEKHKVYACEVTHQGLSSPVTKSFNRGECGGGGSGGGGSGGGGSGGGGSQVQLVQSGAEVKKPGASVKLSCKASGYIFTRYYMYWVKQRPGQGLEWIGEINPNNGGTKFNEKFKNRATLTVDKSISTAYMELSRLRSDDTAVYYCSREDDYDGTPFAMDYWGQGTLVTVSSASTKGPSVFPLAPSSKSTSGGTAALGCLVKDYFPEPVTVSWNSGALTSGVHTFPAVLQSSGLYSLSSVVTVPSSSLGTQTYICNVNHKPSNTKVDKRVEPKSCDKTHTCPPCPAPEFEGGPSVFLFPPKPKDTLMISRTPEVTCVVVDVSHEDPEVKFNWYVDGVEVHNAKTKPREEQYNSTYRVVSVLTVLHQDWLNGKEYKCKVSNKALPASIEKTISKAKGQPREPQVYTLPPSREEMTKNQVSLTCLVKGFYPSDIAVEWESNGQPENNYKTTPPVLDSDGSFFLYSKLTVDKSRWQQGNVFSCSVMHEALHNHYTQKSLSLSPG
light: not shown
notes: IgG anti-BTN3A, scFab anti-PD-1

Legend:
recombinant human BTN3A1 = target: T1, recombinant human BTN3A1 (human, UniProt O00481 30-254); experiment: SPR
T1 construct: Soluble form of the antigen used in SPR; also called rhBTN3A1; recombinant BTN3A1 protein
T1 sequence (O00481 30-254 limits assumed): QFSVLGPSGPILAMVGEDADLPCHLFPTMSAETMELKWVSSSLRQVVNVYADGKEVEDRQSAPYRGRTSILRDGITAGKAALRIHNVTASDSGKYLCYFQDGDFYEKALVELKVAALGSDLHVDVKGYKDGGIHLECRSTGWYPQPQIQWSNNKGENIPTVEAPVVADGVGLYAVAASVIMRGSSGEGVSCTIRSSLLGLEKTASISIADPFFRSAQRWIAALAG

recombinant human PD-1 = target: T2, recombinant human PD-1 (human, UniProt Q15116 25-167, limits assumed); experiment: SPR
T2 construct: Soluble antigen in SPR; also called rhPD-1
T2 sequence (Q15116 25-167 limits assumed): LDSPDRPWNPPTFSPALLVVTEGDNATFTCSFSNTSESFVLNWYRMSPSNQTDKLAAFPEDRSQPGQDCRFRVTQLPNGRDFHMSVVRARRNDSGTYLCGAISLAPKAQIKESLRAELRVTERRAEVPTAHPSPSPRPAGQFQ

[1] = target: T3, PD-1 at the surface of Jurkat-PD-1 cells (human, UniProt Q15116 25-288); experiment: cell-based or functional assay
T3 sequence (Q15116 25-288): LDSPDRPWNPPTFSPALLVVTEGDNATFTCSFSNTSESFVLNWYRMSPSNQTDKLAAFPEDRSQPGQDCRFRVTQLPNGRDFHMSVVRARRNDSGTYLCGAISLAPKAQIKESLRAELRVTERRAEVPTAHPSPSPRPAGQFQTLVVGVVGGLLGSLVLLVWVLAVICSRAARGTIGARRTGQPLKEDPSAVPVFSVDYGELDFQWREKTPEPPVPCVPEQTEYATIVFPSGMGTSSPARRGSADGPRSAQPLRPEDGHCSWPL

[2] = target: T4, BTN3A1 at the surface of HEK-BTN3A1 cells (human, UniProt O00481 30-513); experiment: flow cytometry, HEK-BTN3A1 cells
T4 construct: HEK 293T BTN2A/BTN3A KO cells transduced with a BTN3A1 expressing vector
T4 sequence (O00481 30-513 limits assumed): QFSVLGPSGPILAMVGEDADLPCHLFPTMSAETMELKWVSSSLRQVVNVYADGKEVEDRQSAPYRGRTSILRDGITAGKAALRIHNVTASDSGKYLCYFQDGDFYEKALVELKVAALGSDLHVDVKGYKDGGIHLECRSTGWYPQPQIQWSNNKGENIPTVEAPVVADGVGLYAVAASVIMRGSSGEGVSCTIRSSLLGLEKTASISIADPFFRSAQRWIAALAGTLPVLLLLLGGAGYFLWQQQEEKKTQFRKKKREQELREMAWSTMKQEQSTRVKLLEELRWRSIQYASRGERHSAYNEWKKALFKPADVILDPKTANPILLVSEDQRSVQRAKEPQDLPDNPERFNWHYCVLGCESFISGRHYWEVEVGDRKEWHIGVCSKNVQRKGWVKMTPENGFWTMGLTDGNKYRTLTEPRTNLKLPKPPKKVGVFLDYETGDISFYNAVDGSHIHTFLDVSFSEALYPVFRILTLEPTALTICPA

[3] = target: T3, PD-1 at the surface of Jurkat-PD-1 cells; experiment: flow cytometry, Jurkat-PD-1 cells

Binder | Kd (recombinant human BTN3A1) | Kd (recombinant human PD-1) | Jurkat-PD-1 activation at 10 nM [1] | Jurkat-PD-1 activation at 100 nM [1] | MFI at 10 nM [2] | MFI at 100 nM [2] | MFI at 10 nM [3] | MFI at 100 nM [3]
B1 | 0.067 nM | 0.786 nM | 1.6 fold-change to medium | 6 fold-change to medium | 584000 MFI | 1.18e+06 MFI | 194000 MFI | 340000 MFI
B2 | 0.069 nM | 1.8 nM | 5.3 fold-change to medium | 7.6 fold-change to medium | 321000 MFI | 785000 MFI | 185000 MFI | 366000 MFI
B3 | 0.101 nM | 0.856 nM | 1.3 fold-change to medium | 2.3 fold-change to medium | 460000 MFI | 740000 MFI | 175000 MFI | 376000 MFI
B4 | 0.168 nM | 1.4 nM | 3.1 fold-change to medium | 8.3 fold-change to medium | 536000 MFI | 866000 MFI | 264000 MFI | 364000 MFI
B5 | 0.071 nM | 1.9 nM | 1.5 fold-change to medium | 3.5 fold-change to medium | 588000 MFI | 1.2e+06 MFI | 160000 MFI | 294000 MFI
B6 | 0.163 nM | 0.928 nM | – | – | 224000 MFI | 992000 MFI | 216000 MFI | 367000 MFI
B7 | 0.154 nM | 1.1 nM | – | – | 177000 MFI | 669000 MFI | 110000 MFI | 358000 MFI
